Positions count from the first letter of the chain named.
Columns and labels:
Assay in all cases: SPR; KD relative to WT C2;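 further: biacore SPR at 37 °C, anti-C2 mAbs captured on an anti-human IgG chip, alanine or serine C2 surface mutants tested, KD from 1:1 fit compared with wild-type C2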
human C2 T317A = molecular target: T1, human C2 T317A (human, UniProt P06681 21-752)
T1 sequence: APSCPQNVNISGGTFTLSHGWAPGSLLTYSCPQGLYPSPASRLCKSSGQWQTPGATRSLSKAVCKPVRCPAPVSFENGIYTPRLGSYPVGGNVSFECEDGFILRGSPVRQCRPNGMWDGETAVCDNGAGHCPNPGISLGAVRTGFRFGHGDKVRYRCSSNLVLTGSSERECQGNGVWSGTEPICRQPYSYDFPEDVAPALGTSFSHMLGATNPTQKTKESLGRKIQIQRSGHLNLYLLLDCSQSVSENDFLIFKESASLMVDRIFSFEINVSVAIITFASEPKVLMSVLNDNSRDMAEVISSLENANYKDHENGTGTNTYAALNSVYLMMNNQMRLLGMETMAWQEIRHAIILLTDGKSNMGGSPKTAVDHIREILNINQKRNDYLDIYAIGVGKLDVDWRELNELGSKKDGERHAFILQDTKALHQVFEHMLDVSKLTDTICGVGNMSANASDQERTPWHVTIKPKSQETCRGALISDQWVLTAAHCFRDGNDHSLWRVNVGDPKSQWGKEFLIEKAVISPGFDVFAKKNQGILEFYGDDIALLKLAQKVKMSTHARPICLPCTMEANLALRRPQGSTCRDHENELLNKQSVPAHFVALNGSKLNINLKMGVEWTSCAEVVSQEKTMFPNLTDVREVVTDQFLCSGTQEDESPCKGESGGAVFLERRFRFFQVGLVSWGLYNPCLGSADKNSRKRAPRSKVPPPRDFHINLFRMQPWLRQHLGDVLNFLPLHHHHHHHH

human C2 D441A = molecular target: T2, human C2 D441A (human, UniProt P06681 21-752)
T2 sequence: T1 sequence with A297T, D421A

human C2 M452A = molecular target: T3, human C2 M452A (human, UniProt P06681 21-752)
T3 sequence: T1 sequence with A297T, M432A

human C2 N467A = molecular target: T4, human C2 N467A (human, UniProt P06681 21-752)
T4 sequence: T1 sequence with A297T, N447A

Fold diff (human C2 T317A): 1 fold
Fold diff (human C2 D441A): 2 fold
Fold diff (human C2 M452A): 1 fold
Fold diff (human C2 N467A): 2 fold
B1: RF16-214 (antibody, V domains shown)
VH: EVQLLESGGGLVQPGGSLRLSCAASGFTFSWYQMMWVRQAPGKGLEWVSRIYPSGGGTAYADSVKGRFTISRDNSKNTLYLQMNSLRAEDTAVYYCARDAGYGDNWGQGTLVTVSS
VL: QSALTQPPSVSVSPGQTASITCSGDKLGEKYASWYQQKAGQSPVMVIYQDRKRPSGIPERFSGSNSGNTATLTISGTQAMDEADYYCQAWDTRAVVFGGGTKLTVLG

Reference: patent publication US20220332804A1 (CSL INNOVATION, published 2022)
